One block for each molecule: values may come before it.
Columns and labels:
[1] = molecular target: chimpanzee CD40 expressed on peripheral blood B cells (chimpanzee) (UniProt K7BNQ5); experiment: cell-based or functional assay
[2] = molecular target: chimpanzee CD40 expressed on peripheral blood B cells (chimpanzee, UniProt K7BNQ5 21-277); experiment: cell-based or functional assay
human CD40 = molecular target: T1, human CD40 (human, UniProt P25942 21-193, limits assumed); experiment: BIACore assay
T1 construct: CD40 as used in the BIACore assay; also called CD40 antigen
T1 sequence (P25942 21-193 limits assumed): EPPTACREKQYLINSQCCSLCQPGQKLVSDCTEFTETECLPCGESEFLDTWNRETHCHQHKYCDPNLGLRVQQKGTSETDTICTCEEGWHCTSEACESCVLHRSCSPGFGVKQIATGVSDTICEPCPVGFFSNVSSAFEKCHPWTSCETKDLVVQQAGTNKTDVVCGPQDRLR

Sequence of chimpanzee CD40 expressed on peripheral blood B cells (K7BNQ5 entry or part of it limits assumed): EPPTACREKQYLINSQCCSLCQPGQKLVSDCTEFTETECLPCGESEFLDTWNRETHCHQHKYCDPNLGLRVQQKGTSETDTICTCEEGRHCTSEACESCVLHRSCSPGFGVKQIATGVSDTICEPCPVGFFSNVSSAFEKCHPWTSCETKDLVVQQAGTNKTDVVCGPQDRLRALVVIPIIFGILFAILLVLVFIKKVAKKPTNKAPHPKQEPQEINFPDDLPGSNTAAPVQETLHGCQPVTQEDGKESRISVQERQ
Sequence of chimpanzee CD40 expressed on peripheral blood B cells (chimpanzee) (K7BNQ5 entry or part of it limits assumed): as above

CD40L fold increase of proliferation over huIgG2 at 5 ug/ml; chimp PBMC, 1 sample [1]: 10.2 fold
Molecule: human CD40L expressed on transfected cells (CHO cells; murine L-cells) (from UniProt P29965 1-261) (ligand)

15B8 fold increase of proliferation over huIgG2; chimp PBMC, 1 sample, 15B8 5 ug/ml [2]: 2.46 fold | Kd (human CD40): 3.1 nM
B1: 15B8, fully human anti-CD40 monoclonal antibody (antibody, human IgG2, V domains shown)
VH: QVQLQESGGGVVQPGRSLRLSCAASGFTFNNFGIHWVRQAPGKGLEWVAVISYDGSDKYYADSVKGRFTISRDNSKNTLNLQMNSLRAEDTAVYYCARDRRYYYHYYGMDVWGQGTMVTVSS
VL: DIVMTQSPLSLSVAPGQPASISCKSSQSLLESYGETYLYWYLQKPGQPPQLLIYAVFKRFSGVPDRFSGSGSGTDFTLKISRVEAEDVGVYYCMQSMQLPLTFGGGTKVEIK
notes: Human IgG2 isotype with human kappa light chain, from hybridoma 15B8 (Xenomouse); two heavy and two light chains, 1,284 residues in all; In one FACS format it was directly FITC-labelled; also called antagonist anti-CD40 antibody 15B8; 15B8 MAb

— US20040109857A1 (Novartis, published 2004)
